Test results as given in patent US20030022263A1 (ST JUDE CHILDREN S RESEARCH HOSPITAL, published 2003).

Molecular target: T1, endogenous eIF-4E of mouse fibroblasts (mouse, UniProt P63073 2-217)
T1 construct: mature
Experiment: eIF-4E captured on a methyl-G column from mouse fibroblast lysates, Western blot for both proteins
Description: Fibroblasts from normal or AT mice were treated with (+) or without (−) insulin and total cellular and complexed eIF-4E and 4E-BP1 were examined by Western blot. […] The amount of 4E-BP1 bound to eIF-4E was examined by immunoprecipitating eIF-4E with a methyl-G column and then blotting for both proteins.

T1 sequence (P63073 2-217): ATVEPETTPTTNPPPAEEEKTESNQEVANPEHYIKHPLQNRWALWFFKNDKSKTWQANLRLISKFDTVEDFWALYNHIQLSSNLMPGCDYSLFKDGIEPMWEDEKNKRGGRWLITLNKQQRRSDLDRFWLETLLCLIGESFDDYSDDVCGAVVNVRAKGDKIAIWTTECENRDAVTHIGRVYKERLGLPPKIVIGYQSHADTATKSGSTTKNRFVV

B1: endogenous 4E-BP1 of mouse fibroblasts (other, UniProt Q60876 2-117, looked up)
chain: SAGSSCSQTPSRAIPTRRVALGDGVQLPPGDYSTTPGGTLFSTTPGGTRIIYDRKFLMECRNSPVAKTPPKDLPAIPGVTSPTSDEPPMQASQSQLPSSPEDKRAGGEESQFEMDI
notes: mature
  binding result: binds
